This is an account of results in publication PMC9163516.

Like-named read-outs stand apart in the source and are kept apart here.

Test [1] addresses biotinylated avi-tagged TβRII (UniProt P37173).
Test [2] has as its target TβRII ectodomain (UniProt P37173). Nature of the test: ITC; competition: 150 μM mmTGF-β27M injected into 15 μM TβRII with 0, 6.0 or 12.0 μM TGM-D3; 25 mM sodium phosphate, 50 mM NaCl, pH 6.0, 35 °C; global fit of the three datasets to a 1:1 model with competition. Background: ITC needs no label: the signal is the heat of the interaction.
The target in test [3] is biotinylated avi-tagged TβRII (UniProt P37173). The test is described as follows: SPR; biotinylated avi-tagged TβRII captured at 50-150 RU on neutravidin-coated CM-5 chip; WT TGM-D3 or TGM-D3 variants injected in 25 mM Hepes, pH 7.4, 150 mM NaCl, 0.05% P20, 100 μl/min; 1:1 fit of duplicate or triplicate injection series. (In general: SPR reads the build-up and loss of mass on a sensor chip optically.)

Test [4] shares this target. The test is described as above. The source holds these as a separate data set.
Test [5] has as its target TβRII ectodomain (UniProt P37173). The test is described as follows: ITC; TGM construct titrated into TβRII in the cell; 25 mM sodium phosphate, 50 mM NaCl, pH 6.0, 35 °C; 1:1 model.
Test [6] concerns the target biotinylated avi-tagged TβRII (UniProt P37173). Nature of the test: SPR; BIAcore X100; biotinylated avi-tagged TβRI or TβRII captured on neutravidin-coated CM-5 chip (results say streptavidin) at 50-150 RU; TGM constructs injected as 2-fold dilution series in 25 mM Hepes, pH 7.4, 150 mM NaCl, 0.005% P20, 100 μl/min; 1:1 kinetic fit of a single injection series.
The target in test [7] is TβRI ectodomain (UniProt P36897). The test is described as follows: ITC; TGM construct in the syringe (58-150 µM), 7.5 µM TβRI in the cell; 25 mM Hepes, 50 mM NaCl, 0.05% NaN3, pH 7.5, 25 °C; 1:1 model (Nitpic, Sedphat).
Test [8] deals with biotinylated avi-tagged TGM-D3 (Heligmosomoides polygyrus). Nature of the test: SPR; biotinylated avi-tagged TGM-D3 captured at 50-150 RU on neutravidin-coated CM-5 chip; TβRII variants injected in 25 mM Hepes, pH 7.4, 150 mM NaCl, 0.05% P20, 100 μl/min; 1:1 fit of duplicate or triplicate injection series.
Test [9] deals with TβRII ectodomain (UniProt P37173). The test is described as follows: ITC; TGM construct in the syringe (300-320 µM), 15 µM TβRII in the cell; 25 mM sodium phosphate, 50 mM NaCl, pH 6.0, 35 °C; 1:1 model (Nitpic, Sedphat).
Test [10] concerns the target TβRI ectodomain (UniProt P36897). Nature of the test: ITC; TGM construct titrated into TβRI in the cell; 25 mM Hepes, 50 mM NaCl, 0.05% NaN3, pH 7.5, 25 °C; 1:1 model.
Test [11] has as its target biotinylated avi-tagged TβRI (UniProt P36897). Nature of the test: SPR; BIAcore X100; biotinylated avi-tagged TβRI or TβRII captured on neutravidin-coated CM-5 chip (results say streptavidin) at 50-150 RU; TGM constructs injected as 2-fold dilution series in 25 mM Hepes, pH 7.4, 150 mM NaCl, 0.005% P20, 100 μl/min; 1:1 kinetic fit of a single injection series.
For test [12], the target named is TβRI ectodomain (UniProt P36897). The test is described as follows: ITC; TGF-β3(TβRII)2 complex titrated into TβRI; 25 mM Hepes, 50 mM NaCl, 0.05% NaN3, pH 7.5, 30 °C.

In test [1], TGM D13 Y252A (domain or fragment) came in with an EC50 of signaling, MFB-F11 TGF-β reporter bioassay of 7 ng/mL.

One may read the Kd as the constant that tells how readily two partners part at equilibrium. Read a high Kd as a looser complex. As for “mmTGF-β27M, engineered TGF-β monomer (from UniProt P61812) (ligand)”, in the test with TβRII ectodomain [2], the Kd was 35 nM.

Take TGM-D3 K254A (domain or fragment): the fold increase of KD against WT in test [3] was above 20 fold; in [4] it was above 30 fold.

Regarding TGM-D3 R198A (domain or fragment), the figures for the fold increase of KD against WT in [3] and in [4] were above 20 fold and above 30 fold, respectively.

One may read the stoichiometry N as a count of units in the complex or per binding partner. What is called koff is a measure of how fast the partners let go of each other. High values mean fast dissociation, low ones slow dissociation. The term kon denotes a measure of how fast the partners come together. Read a low kon as slow association. Substance TGM-D3 (domain or fragment) showed a stoichiometry N with TβRII ectodomain [5] of 1. Further, in test [6], the Kd was 910 nM, the koff came out at 0.6 s⁻¹ and the kon worked out at 600000 M⁻¹ s⁻¹.

In the test with TβRI ectodomain [7], TGM-D2 (domain or fragment) displayed a Kd of 1500 nM and a stoichiometry N of 0.54.

Substance “TβRII I76A (from UniProt P37173 23-166) (receptor)” had a fold increase of KD against WT in test [8] of 26 fold.

With “TβRII I73A (from UniProt P37173 23-166) (receptor)”, in test [8], the fold increase of KD against WT worked out at 7 fold.

For “TβRII S75L (from UniProt P37173 23-166) (receptor)”, the fold increase of KD against WT in test [8] is 200 fold.

In turn, TGM-D12 (domain or fragment) returned a stoichiometry N in the test with TβRI ectodomain [7] of 1.2.

In [3], TGM-D3 I238A (domain or fragment) had a fold increase of KD against WT above 20 fold.

On to TGM D13 I238A (domain or fragment), for which the EC50 of signaling, MFB-F11 TGF-β reporter bioassay in test [1] was determined as 9.7 ng/mL.

Take “TGM D13 (TGM D1-D3), wild type (domain or fragment)”: the EC50 of signaling, MFB-F11 TGF-β reporter bioassay in [1] came out at 3.9 ng/mL.

For TGM-D3 Y252A (domain or fragment), the fold increase of KD against WT in test [3] was above 20 fold.

With “TβRII E142Q (from UniProt P37173 23-166) (receptor)”, the fold increase of KD against WT in [8] is 17 fold.

Regarding TGM-FL (natural protein), in the test with TβRII ectodomain [9], the Kd was 550 nM and the stoichiometry N was 0.84. In the test with TβRI ectodomain [7], this substance came in with a Kd of 52 nM and a stoichiometry N of 0.96.

The substance TGM D13 I256A (domain or fragment) returned an EC50 of signaling, MFB-F11 TGF-β reporter bioassay in test [1] of 4.5 ng/mL.

Turning to TGM-D3 F235A (domain or fragment), in test [3], the fold increase of KD against WT came out at 4 fold.

As for “full-length TGM (TGF-β mimic) (natural protein)”, the stoichiometry N in the test with TβRI ectodomain [10] and in the test with TβRII ectodomain [5] was 1 each time. The Kd in [11] worked out at 13 nM; in [6], 610 nM. The koff came to 0.00078 s⁻¹ in [11] and 0.1 s⁻¹ in [6]. Also, the kon worked out at 59000 M⁻¹ s⁻¹ in test [11] and 2e+07 M⁻¹ s⁻¹ in test [6].

Regarding TGM-D3 V236A (domain or fragment), the fold increase of KD against WT in test [3] came to 4 fold.

Regarding “TGF-β3(TβRII)2 binary complex (from UniProt P37173 23-166)”, in the test with TβRI ectodomain [12], the dissociation constant (Kd) came to 61 nM and the dH was -4.2 kcal/mol.
